Experimental data from publication PMC2173821 (The Journal of Cell Biology, 2002).
Numbering of substitutions follows the chain as printed.

B1: His-tagged wild-type human BAF, recombinant (natural protein, UniProt O75531 1-89, looked up)
chain: MTTSQKHRDFVAEPMGEKPVGSLAGIGEVLGKKLEERGFDKAYVVLGQFLVLKKDEDLFREWLKDTCGANAKQSRDCFGCLREWCDAFL
B2: His-tagged human BAF mutant 41E, recombinant (natural protein, UniProt O75531 1-89, looked up)
chain: B1 chain with K41E
B3: His-tagged human BAF mutant 14A, recombinant (natural protein, UniProt O75531 1-89, looked up)
chain: B1 chain with P14A
B4: His-tagged human BAF mutant 53E, recombinant (natural protein, UniProt O75531 1-89, looked up)
chain: B1 chain with K53E
B5: His-tagged human BAF mutant 47E, recombinant (natural protein, UniProt O75531 1-89, looked up)
chain: B1 chain with G47E

Target: the molecule itself
Experiment: SEC

Protein | stoichiometry N
B1 | 2
B2 | 2
B3 | 2
B4 | 2
B5 | 2
